Paper PMC9419707 (Nature, 2022)

Molecular target: T1, His6–GFP–POU2F3 (UniProt Q9UKI9 1-436)
T1 sequence (looked up): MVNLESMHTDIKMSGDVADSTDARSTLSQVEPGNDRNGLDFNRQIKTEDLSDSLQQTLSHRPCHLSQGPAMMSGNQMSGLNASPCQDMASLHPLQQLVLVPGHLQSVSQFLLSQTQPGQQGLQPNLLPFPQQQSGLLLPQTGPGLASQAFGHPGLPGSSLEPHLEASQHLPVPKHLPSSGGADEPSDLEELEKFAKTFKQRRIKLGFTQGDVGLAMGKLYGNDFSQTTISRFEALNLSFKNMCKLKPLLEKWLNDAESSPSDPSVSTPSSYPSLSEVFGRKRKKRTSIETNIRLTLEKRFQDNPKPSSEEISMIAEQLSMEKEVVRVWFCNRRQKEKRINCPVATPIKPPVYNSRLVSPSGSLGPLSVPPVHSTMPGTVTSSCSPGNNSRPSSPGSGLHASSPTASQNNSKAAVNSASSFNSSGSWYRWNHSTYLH
Test: SEC

B1: Strep2SUMO–OCA-B (natural protein, UniProt Q16633 1-256, looked up)
chain: MLWQKPTAPEQAPAPARPYQGVRVKEPVKELLRRKRGHASSGAAPAPTAVVLPHQPLATYTTVGPSCLDMEGSVSAVTEEAALCAGWLSQPTPATLQPLAPWTPYTEYVPHEAVSCPYSADMYVQPVCPSYTVVGPSSVLTYASPPLITNVTTRSSATPAVGPPLEGPEHQAPLTYFPWPQPLSTLPTSTLQYQPPAPALPGPQFVQLPISIPEPVLQDMEDPRRAASSLTIDKLLLEEEDSDAYALNHTLSVEGF
B1: binds.
